Test results published in US20220074937A1.

What was measured:
[1] = biological target: CD19 CAR containing FMC63 scFv, on the cell surface (CD19 CAR-T cells, CD19 CAR-293T cells); assay: flow cytometry, CAR positive cells diluted 1:8 in negative cells; AF488-CD19sIg1-4 against SSC-A; data reproduced from De Oliveira SN, et al., J Transl Med, 2013
[2] = biological target: CD19 CAR containing FMC63 scFv, on the cell surface (CD19 CAR-T cells, CD19 CAR-293T cells); assay: flow cytometry, CAR positive cells diluted 1:16 in negative cells; AF488-CD19sIg1-4 against SSC-A; data reproduced from De Oliveira SN, et al., J Transl Med, 2013
[3] = biological target: CD19 CAR containing FMC63 scFv, on the cell surface (CD19 CAR-T cells, CD19 CAR-293T cells); assay: flow cytometry, CAR positive cells diluted 1:128 in negative cells; AF488-CD19sIg1-4 against SSC-A; data reproduced from De Oliveira SN, et al., J Transl Med, 2013
[4] = biological target: CD19 CAR containing FMC63 scFv, on the cell surface (CD19 CAR-T cells, CD19 CAR-293T cells); assay: flow cytometry, CAR positive cells diluted 1:64 in negative cells; AF488-CD19sIg1-4 against SSC-A; data reproduced from De Oliveira SN, et al., J Transl Med, 2013
[5] = biological target: CD19 CAR containing FMC63 scFv, on the cell surface (CD19 CAR-T cells, CD19 CAR-293T cells); assay: flow cytometry, CAR positive cells diluted 1:32 in negative cells; AF488-CD19sIg1-4 against SSC-A; data reproduced from De Oliveira SN, et al., J Transl Med, 2013
[6] = biological target: CD19 CAR containing FMC63 scFv, on the cell surface (CD19 CAR-T cells, CD19 CAR-293T cells); assay: flow cytometry, CAR positive cells unmixed; AF488-CD19sIg1-4 against SSC-A; data reproduced from De Oliveira SN, et al., J Transl Med, 2013

CD19 CAR containing FMC63 scFv, on the cell surface (CD19 CAR-T cells, CD19 CAR-293T cells), sequence (chain, as listed by the source): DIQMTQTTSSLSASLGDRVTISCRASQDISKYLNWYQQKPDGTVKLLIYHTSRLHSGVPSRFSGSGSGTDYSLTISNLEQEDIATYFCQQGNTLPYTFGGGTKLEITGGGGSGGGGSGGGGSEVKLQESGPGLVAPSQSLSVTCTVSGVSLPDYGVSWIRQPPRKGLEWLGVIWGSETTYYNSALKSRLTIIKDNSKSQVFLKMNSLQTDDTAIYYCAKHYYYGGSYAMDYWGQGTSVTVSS

Substance CD19/Fc (Fc fusion) has a % of cells in the AF488-CD19sIg1-4 positive gate, 1:8 [1] of 9.24%, a % of cells in the AF488-CD19sIg1-4 positive gate, 1:16 [2] of 4.28% and a % of cells in the AF488-CD19sIg1-4 positive gate, 1:128 [3] of 0.646%. It also gave a % of cells in the AF488-CD19sIg1-4 positive gate, 1:64 [4] of 1.34%, a % of cells in the AF488-CD19sIg1-4 positive gate, 1:32 [5] of 2.96% and a % of cells in the AF488-CD19sIg1-4 positive gate, CAR positive cell (unmixed) [6] of 65.9%.
